Experimental data from article PMC2806001.

Molecular target: T1, Peroxiredoxin 1 (Prx1) WT, recombinant (mouse), P35700
T1 chain: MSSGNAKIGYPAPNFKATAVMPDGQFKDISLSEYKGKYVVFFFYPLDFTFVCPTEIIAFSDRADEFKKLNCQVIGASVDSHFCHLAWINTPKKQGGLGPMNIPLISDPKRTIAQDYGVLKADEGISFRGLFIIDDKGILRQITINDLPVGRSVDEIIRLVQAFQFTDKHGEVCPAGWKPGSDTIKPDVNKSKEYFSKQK
Assay: native gel or EMSA; BN-PAGE of purified recombinant proteins incubated for 1 hour at room temperature (20 μg p66CH2CB with 40 μg Prx1 WT or 20 μg Prx1-Cys83Ser); bands cut out and separated in a second, denaturing SDS-PAGE dimension
Conditions: remark: other sources report otherwise

stoichiometry N: 10
B1: Peroxiredoxin 1 (Prx1) WT, recombinant, P35700 1-199 (enzyme)
chain: T1 chain
